We go through 29 molecules from US20260242419A1, “A CYCLIC PEPTIDE FOR TRAPPING INTERLEUKIN-1 BETA” (Merck Sharp & Dohme LLC, priority 2023, published 2026).

Starred links: 1 amine or outer side, 2 acyl side, 3 side chain; linkers in the order of their positions; H or OH if unused. Non-standard residues stand in square brackets, D forms with d. dProc3CH24Pal = (2R,3S)-3-(4-pyridylmethyl)pyrrolidine-2-carboxylic acid, O=C([C@H]1[C@@H](Cc2ccncc2)CCN1[*:1])[*:2]; AlaPyrim4CONH2 = (2S)-2-amino-3-(2-carbamoylpyrimidin-5-yl)propanoic acid, NC(=O)c1ncc(C[C@H](N[*:1])C(=O)[*:2])cn1; sbOH4Pal = (2S,3S)-2-amino-3-hydroxy-3-(4-pyridyl)propanoic acid, O=C([C@@H](N[*:1])[C@@H](O[*:3])c1ccncc1)[*:2]; daMeSMe = (2R)-2-amino-3-methoxy-2-methyl-propanoic acid, COC[C@@](C)(N[*:1])C(=O)[*:2]; alTOMe = (2S,3S)-2-amino-3-methoxy-butanoic acid, CO[C@@H](C)[C@H](N[*:1])C(=O)[*:2]; ThrOMe = (2S,3R)-2-amino-3-methoxy-butanoic acid, CO[C@H](C)[C@H](N[*:1])C(=O)[*:2]; Ala(2-carboxypyrimidin-5-yl) = N[C@@H](Cc1cnc(C(=O)O)nc1)C(=O)O; dPro(4R-(4-pyridylmethyl)) = O=C(O)[C@H]1C[C@@H](Cc2ccncc2)CN1; Trp(βS-Me,4-F) = C[C@@H](c1c[nH]c2cccc(F)c12)[C@H](N)C(=O)O; Bip(4'-COOH) = N[C@@H](Cc1ccc(-c2ccc(C(=O)O)cc2)cc1)C(=O)O; dPro(3S-(4-F-Bn)) = O=C(O)[C@@H]1NCC[C@@H]1Cc1ccc(F)cc1; Trp(4-Cl) = N[C@@H](Cc1c[nH]c2cccc(Cl)c12)C(=O)O; Ala(pyrimidin-5-yl) = N[C@@H](Cc1cncnc1)C(=O)O; Phe(4-COOH) = N[C@@H](Cc1ccc(C(=O)O)cc1)C(=O)O; Trp(4-F) = N[C@@H](Cc1c[nH]c2cccc(F)c12)C(=O)O; Bip = N[C@@H](Cc1ccc(-c2ccccc2)cc1)C(=O)O; Pro(cis-4-F) = O=C(O)[C@@H]1C[C@H](F)CN1; Met(O2) = CS(=O)(=O)CC[C@H](N)C(=O)O; d(αMeF) = C[C@@](N)(Cc1ccccc1)C(=O)O; Dap(CONH2) = NC(=O)NC[C@H](N)C(=O)O; hTyr = N[C@@H](CCc1ccc(O)cc1)C(=O)O; cisHyp = O=C(O)[C@@H]1C[C@H](O)CN1; d(αMeD) = C[C@@](N)(CC(=O)O)C(=O)O; 4Pal = N[C@@H](Cc1ccncc1)C(=O)O; d3Pal = N[C@H](Cc1cccnc1)C(=O)O; aThr = C[C@H](O)[C@H](N)C(=O)O; NMeDab = CN[C@@H](CCN)C(=O)O; dOrn = NCCC[C@@H](N)C(=O)O; dDab = NCC[C@@H](N)C(=O)O; dDap = NC[C@@H](N)C(=O)O; Dab = NCC[C@H](N)C(=O)O; Nva = CCC[C@H](N)C(=O)O; Aib = CC(C)(N)C(=O)O

One assay has as its target Recombinant human IL-1β (BioLegend 579404) (human, UniProt P01584 117-269). Kind of assay: cell-based or functional assay.
As for cyclo([Bip][4Pal][Phe(4-COOH)]G[Pro(cis-4-F)][Trp(βS-Me,4-F)][Aib]SW[d(αMeD)][dDap]Q[Dap(CONH2)]G[dPro(4R-(4-pyridylmethyl))]) (ring closure inferred) [SEQ ID NO 246], the “MRC5 IC50” value turned out to be 0.031 nM.
Regarding cyclo([Bip][4Pal][Phe(4-COOH)]G[Pro(cis-4-F)][Trp(βS-Me,4-F)][Aib]SW[d(αMeD)][dDab]Q[Dap(CONH2)]G[dPro(4R-(4-pyridylmethyl))]) (ring closure inferred) [SEQ ID NO 247], the “MRC5 IC50” value was determined as 0.03 nM.
With cyclo([Bip(4'-COOH)][4Pal][Phe(4-COOH)]G[Pro(cis-4-F)][Trp(βS-Me,4-F)][Aib]SW[d(αMeD)][Nva]Q[Dab]G[dPro(4R-(4-pyridylmethyl))]) (ring closure inferred) [SEQ ID NO 253], the “MRC5 IC50” value worked out at 0.013 nM.
cyclo([Bip(4'-COOH)][4Pal][Phe(4-COOH)]G[Pro(cis-4-F)][Trp(βS-Me,4-F)][Aib]SW[Aib][Ala(2-carboxypyrimidin-5-yl)]Q[Dab]G[dPro(4R-(4-pyridylmethyl))]) (ring closure inferred) [SEQ ID NO 268]: the “MRC5 IC50” value is 0.014 nM.
For the molecule cyclo([Bip][4Pal][Phe(4-COOH)]G[Pro(cis-4-F)][Trp(βS-Me,4-F)][Aib]SW[d(αMeD)][dOrn]Q[Dap(CONH2)]G[dPro(4R-(4-pyridylmethyl))]) (ring closure inferred) [SEQ ID NO 245], the “MRC5 IC50” value is 0.027 nM.
In the case of cyclo([Bip(4'-COOH)][4Pal][Phe(4-COOH)]G[Pro(cis-4-F)][Trp(βS-Me,4-F)][Aib]SW[Aib][Ala(pyrimidin-5-yl)]Q[NMeDab]G[dPro(4R-(4-pyridylmethyl))]) (ring closure inferred) [SEQ ID NO 262], the “MRC5 IC50” value came to 0.02 nM.
Consider cyclo([Bip][4Pal][Phe(4-COOH)]G[Pro(cis-4-F)][Trp(βS-Me,4-F)][Aib]SW[Aib][dE]Q[Dab]G[dPro(4R-(4-pyridylmethyl))]) (ring closure inferred) [SEQ ID NO 250], for which the “MRC5 IC50” value is 0.027 nM.
cyclo([Bip(4'-COOH)][4Pal][Phe(4-COOH)]G[Pro(cis-4-F)][Trp(βS-Me,4-F)][Aib]SW[d(αMeD)][dF]Q[Dab]G[dPro(4R-(4-pyridylmethyl))]) (ring closure inferred) [SEQ ID NO 243]: the “MRC5 IC50” value was 0.022 nM.
Same read-out and setting: as for cyclo([Bip(4'-COOH)][4Pal][Phe(4-COOH)]G[Pro(cis-4-F)][Trp(βS-Me,4-F)][Aib]SW[d(αMeD)][hTyr]Q[Dab]G[dPro(4R-(4-pyridylmethyl))]) (ring closure inferred) [SEQ ID NO 256], the figure is 0.012 nM; as for cyclo([Bip][4Pal][Phe(4-COOH)]G[Pro(cis-4-F)][Trp(βS-Me,4-F)][Aib]SW[Aib][dD]Q[Dab]G[dPro(4R-(4-pyridylmethyl))]) (ring closure inferred) [SEQ ID NO 265], 0.022 nM; as for cyclo([Bip(4'-COOH)][4Pal][Phe(4-COOH)]G[Pro(cis-4-F)][Trp(βS-Me,4-F)][Aib]SW[d(αMeF)]EQ[Dab]G[dPro(4R-(4-pyridylmethyl))]) (ring closure inferred) [SEQ ID NO 258], 0.02 nM.
Consider cyclo([Bip(4'-COOH)][4Pal][Phe(4-COOH)]G[Pro(cis-4-F)][Trp(βS-Me,4-F)][Aib]SW[d(αMeF)][aThr]Q[Dab]G[dPro(4R-(4-pyridylmethyl))]) (ring closure inferred) [SEQ ID NO 257], for which the “MRC5 IC50” value turned out to be 0.021 nM.
cyclo([Bip(4'-COOH)][4Pal][Phe(4-COOH)]G[Pro(cis-4-F)][Trp(βS-Me,4-F)][Aib]SW[Aib][Met(O2)]Q[Dab]G[dPro(4R-(4-pyridylmethyl))]) (ring closure inferred) [SEQ ID NO 266]: the “MRC5 IC50” value stood at 0.019 nM.
As for cyclo([Bip(4'-COOH)][4Pal][Phe(4-COOH)]G[Pro(cis-4-F)][Trp(βS-Me,4-F)][Aib]SW[d(αMeD)][sbOH4Pal]Q[Dab]G[dPro(3S-(4-F-Bn))]) (ring closure inferred) [SEQ ID NO 263], the “MRC5 IC50” value stood at 0.017 nM.
cyclo([Bip(4'-COOH)][4Pal][Phe(4-COOH)]G[Pro(cis-4-F)][Trp(βS-Me,4-F)][Aib]SW[daMeSMe][Ala(pyrimidin-5-yl)]Q[Dab]G[dPro(4R-(4-pyridylmethyl))]) (ring closure inferred) [SEQ ID NO 260]: the “MRC5 IC50” value was found to be 0.013 nM.
Take cyclo([Bip(4'-COOH)][4Pal][Phe(4-COOH)]G[Pro(cis-4-F)][Trp(βS-Me,4-F)][Aib]SW[d(αMeD)][alTOMe]Q[Dab]G[dPro(4R-(4-pyridylmethyl))]) (ring closure inferred) [SEQ ID NO 254]: the “MRC5 IC50” value amounted to 0.013 nM.
On to cyclo([Bip(4'-COOH)][4Pal][Phe(4-COOH)]G[Pro(cis-4-F)][Trp(βS-Me,4-F)][Aib]S[Trp(4-F)][d(αMeD)][Ala(pyrimidin-5-yl)]Q[Dab]G[dPro(4R-(4-pyridylmethyl))]) (ring closure inferred) [SEQ ID NO 252], for which the “MRC5 IC50” value was found to be 0.013 nM.
As to cyclo([Bip(4'-COOH)][4Pal][Phe(4-COOH)]G[Pro(cis-4-F)][Trp(βS-Me,4-F)][Aib]S[Trp(4-Cl)][d(αMeD)][Ala(pyrimidin-5-yl)]Q[Dab]G[dPro(4R-(4-pyridylmethyl))]) (ring closure inferred) [SEQ ID NO 251], the “MRC5 IC50” value turned out to be 0.013 nM.
As for cyclo([Bip][4Pal][Phe(4-COOH)]G[Pro(cis-4-F)][Trp(βS-Me,4-F)][Aib]SW[d(αMeD)][dK]Q[Dap(CONH2)]G[dPro(4R-(4-pyridylmethyl))]) (ring closure inferred) [SEQ ID NO 244], the “MRC5 IC50” value amounted to 0.03 nM.
cyclo([Bip][4Pal][Phe(4-COOH)]G[Pro(cis-4-F)][Trp(βS-Me,4-F)][Aib]SW[d(αMeD)][dDab]Q[Dab]G[dPro(4R-(4-pyridylmethyl))]) (ring closure inferred) [SEQ ID NO 248]: the “MRC5 IC50” value stood at 0.028 nM.
Turning to cyclo([Bip(4'-COOH)][4Pal][Phe(4-COOH)]G[Pro(cis-4-F)][Trp(βS-Me,4-F)][Aib]SW[Aib][AlaPyrim4CONH2]Q[Dab]G[dPro(4R-(4-pyridylmethyl))]) (ring closure inferred) [SEQ ID NO 267], the “MRC5 IC50” value came out at 0.014 nM.
For cyclo([Bip][4Pal][Phe(4-COOH)]G[cisHyp][Trp(βS-Me,4-F)][Aib]SW[d(αMeD)][Ala(pyrimidin-5-yl)]Q[Dab]G[dPro(4R-(4-pyridylmethyl))]) (ring closure inferred) [SEQ ID NO 264], the “MRC5 IC50” value came out at 0.017 nM.
Regarding cyclo([Bip][4Pal][Phe(4-COOH)]G[Pro(cis-4-F)][Trp(βS-Me,4-F)][Aib]SW[d(αMeD)][dE]Q[Dab]G[dPro(4R-(4-pyridylmethyl))]) (ring closure inferred) [SEQ ID NO 249], the “MRC5 IC50” value turned out to be 0.016 nM.
Same read-out and setting: as for cyclo([Bip(4'-COOH)][4Pal][Phe(4-COOH)]G[Pro(cis-4-F)][Trp(βS-Me,4-F)][Aib]SW[daMeSMe][aThr]Q[Dab]G[dPro(4R-(4-pyridylmethyl))]) (ring closure inferred) [SEQ ID NO 261], the figure is 0.017 nM.
For the molecule cyclo([Bip(4'-COOH)][4Pal][Phe(4-COOH)]G[Pro(cis-4-F)][Trp(βS-Me,4-F)][Aib]SW[d(αMeD)][dS]Q[Dab]G[dPro(4R-(4-pyridylmethyl))]) (ring closure inferred) [SEQ ID NO 242], the “MRC5 IC50” value amounted to 0.019 nM.
As to cyclo([Bip(4'-COOH)][4Pal][Phe(4-COOH)]G[Pro(cis-4-F)][Trp(βS-Me,4-F)][Aib]SW[d(αMeF)]DQ[Dab]G[dPro(4R-(4-pyridylmethyl))]) (ring closure inferred) [SEQ ID NO 259], the “MRC5 IC50” value turned out to be 0.014 nM.
Consider cyclo([Bip(4'-COOH)][4Pal][Phe(4-COOH)]G[Pro(cis-4-F)][Trp(βS-Me,4-F)][Aib]SW[d(αMeD)][ThrOMe]Q[Dab]G[dPro(4R-(4-pyridylmethyl))]) (ring closure inferred) [SEQ ID NO 255], for which the “MRC5 IC50” value worked out at 0.011 nM.

For another assay the target is unchanged. In words: cell-based or functional assay. The source holds these as a separate data set.
cyclo([Bip(4'-COOH)][4Pal][Phe(4-COOH)]G[Pro(cis-4-F)][Trp(βS-Me,4-F)][Aib]SW[Aib][Ala(pyrimidin-5-yl)]Q[NMeDab]G[dProc3CH24Pal]) (ring closure inferred) [SEQ ID NO: 241]: the “MRC5 IC50” value worked out at 0.018 nM.
On the same count and under the same terms, the figure for cyclo([Bip(4'-COOH)][4Pal][Phe(4-COOH)]G[Pro(cis-4-F)][Trp(βS-Me,4-F)][Aib]SW[d(αMeD)][d3Pal]Q[Dab]G[dProc3CH24Pal]) (ring closure inferred) [SEQ ID NO: 240] is 0.025 nM.
